Measured values reported in patent US20190284293A1 (Bristol-Myers Squibb, published 2019).

Biological target: T1, N-hCD73-his (N-terminal domain of human CD73, residues 26-336, His tag) (human, UniProt P21589 26-336)
T1 sequence: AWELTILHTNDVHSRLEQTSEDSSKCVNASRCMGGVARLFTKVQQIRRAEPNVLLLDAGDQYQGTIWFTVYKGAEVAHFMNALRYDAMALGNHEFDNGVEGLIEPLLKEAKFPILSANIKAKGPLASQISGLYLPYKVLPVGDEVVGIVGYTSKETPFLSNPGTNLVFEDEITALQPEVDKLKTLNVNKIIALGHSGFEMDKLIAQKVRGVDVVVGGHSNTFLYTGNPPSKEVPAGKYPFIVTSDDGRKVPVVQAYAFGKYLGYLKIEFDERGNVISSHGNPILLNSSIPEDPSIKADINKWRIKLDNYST
Experiment: SPR

B1: CD73.10-IgG2-C219S (antibody)
heavy: QVQLVESGGGVVQPGRSLRLSCAASGFTFSNYGMHWVRQAPGKGLEWVAVIWYDESNKYYPDSVKGRFTISRDNSKNTLYLQMNSLRAEDTAVYYCARGGSSWYPDSFDIWGQGTMVTVSSASTKGPSVFPLAPCSRSTSESTAALGCLVKDYFPEPVTVSWNSGALTSGVHTFPAVLQSSGLYSLSSVVTVPSSNFGTQTYTCNVDHKPSNTKVDKTVERKSCVECPPCPAPPVAGPSVFLFPPKPKDTLMISRTPEVTCVVVDVSHEDPEVQFNWYVDGVEVHNAKTKPREEQFNSTFRVVSVLTVVHQDWLNGKEYKCKVSNKGLPAPIEKTISKTKGQPREPQVYTLPPSREEMTKNQVSLTCLVKGFYPSDIAVEWESNGQPENNYKTTPPMLDSDGSFFLYSKLTVDKSRWQQGNVFSCSVMHEALHNHYTQKSLSLSPG
light: not shown
notes: also called CD73.10-IgG2CS; CD73.10-IgG2S
Kd: ~5 nM
